The supplement of paper PMC11908140

B1: library; numbered along this chain (parent)
chain: MRKPRAAVGSGHRKQAASQEGRQKHAKNNSQAKPSACDGLARQPEEVVLQASVSSYHLFRDVAEVTAFRGSLLSWYDQEKRDLPWRRRAEDEMDLDRRAYAVWVSEVMLQQTQVATVINYYTGWMQKWPTLQDLASASLEEVNQLWAGLGYYSRGRRLQEGARKVVEELGGHMPRTAETLQQLLPGVGRYTAGAIASIAFGQATGVVDGNVARVLCRVRAIGADPSSTLVSQQLWGLAQQLVDPARPGDFNQAAMELGATVCTPQRPLCSQCPVESLCRARQRVEQEQLLASGSLSGSPDVEECAPNTGQCHLCLPPSEPWDQTLGVVNFPRKASRKPPREESSATCVLEQPGALGAQILLVQRPNSGLLAGLWEFPSVTWEPSEQLQRKALLQELQRWAGPLPATHLRHLGEVVHTFSHIKLTYQVYGLALEGQTPVTTVPPGARWLTQEEFHTAAVSTAMKKVFRVYQGQQPGTCMGSKRSQVSSPCSRKKPRMGQQVLDNFFRSHISTDAHSLNSAAQ

Variants of: B1
Assay: 8OG:A repair function score (normalized; synonymous = 0, nonsense = -1) (normalized log-likelihood score); higher = more repair activity (WT-like)
Settings: with 8OG:A DNA repair reporter (GFP) in HEK-293 MUTYH KO cells
Method in brief: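 After 72 h, viable mCherry+ cells were split into GFP+ (repair) and GFP− bins in three replicates per tile. These cells were MUTYH knockout HEK-293 cells holding lentiviral MUTYH cDNA NNN codon-scan libraries, kept in 10 pg/ml doxycycline and co-transfected with mCherry plus an 8OG:A GFP repair reporter. Sequencing of tile amplicons gave per-tile Rosace fitness scores, normalized into a repair function score anchored on synonymous and nonsense distributions. Synonymous medians were fixed at 0, nonsense at -1, and variants under 300 counts per million at the start were removed.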
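Also: cells sorted at 72 h after reporter transfection.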

In order of rising “8OG:A repair function score” value:
1. W75N  -2.91
2. V117K  -1.84
3. W128P  -1.23
4. C262T  -1.19
5. V465P  -1.18
6. T191R  -1.16
7. Y76G  -1.14
8. V465R  -1.13
9. G186W  -1.08
10. C347P  -1.08
11. L72H  -1.08
12. R154P  -1.06
13. F330P  -1.04
14. V104N  -1.04
15. V427G  -1.03
16. R86Y  -1.03
17. M255Y  -1.02
18. L215K  -1.02
19. V218E  -0.985
20. W447A  -0.968
21. G248F  -0.958
22. L241N  -0.946
23. G188N  -0.923
24. Y152A  -0.881
25. R364I  -0.878
26. R81V  -0.851
27. L408W  -0.833
28. G148R  -0.782
29. C314F  -0.764
30. Y152W  -0.762
31. A137F  -0.738
32. F466T  -0.725
33. L369D  -0.723
34. Y152G  -0.713
35. A196I  -0.703
36. A196N  -0.697
37. D249G  -0.675
38. H57C  -0.642
39. G171Y  -0.628
40. A99I  -0.617
41. R98C  -0.578
42. S419P  -0.574
43. F250A  -0.516
44. A445N  -0.506
45. K164D  -0.483
46. Q363F  -0.479
47. K464I  -0.441
48. R389H  -0.403
49. M173T  -0.402
50. V211F  -0.4
51. D243A  -0.387
52. L158V  -0.372
53. E375T  -0.355
54. Q110L  -0.353
55. L73H  -0.344
56. L370A  -0.326
57. W146T  -0.294
58. H410C  -0.293
59. L257F  -0.285
60. V327I  -0.257
61. N329V  -0.246
62. T324P  -0.236
63. V284G  -0.236
64. S419D  -0.221
65. Q358A  -0.219
66. Q232H  -0.21
67. Q363P  -0.208
68. A354M  -0.19
69. P404G  -0.187
70. Y469T  -0.181
71. T176L  -0.174
72. R266Q  -0.165
73. F59Y  -0.161
74. N143G  -0.139
75. R467C  -0.137
76. V104C  -0.133
77. P317F  -0.125
78. P317Q  -0.121
79. E451T  -0.12
80. V65W  -0.114
81. E303F  -0.112
82. T260N  -0.111
83. L448A  -0.105
84. Q470G  -0.105
85. T439Y  -0.104
86. T204D  -0.103
87. L361C  -0.101
88. H312A  -0.0906
89. L49V  -0.0831
90. T406W  -0.0828
91. L184I  -0.0822
92. K463R  -0.0765
93. L387E  -0.0756
94. L370C  -0.0696
95. R98W  -0.0663
96. T439R  -0.0617
97. E64N  -0.0585
98. L139M  -0.053
99. Q233G  -0.0523
100. G479C  -0.0498
101. P320A  -0.0474
102. T449L  -0.0459
103. V441Y  -0.0452
104. E45K  -0.0451
105. A291T  -0.0451
106. P306C  -0.044
107. E287I  -0.038
108. G479R  -0.0309
109. P338G  -0.0299
110. Q310F  -0.0295
111. Q144C  -0.0295
112. S292W  -0.0286
113. S52H  -0.0255
114. G39C  -0.0254
115. A147M  -0.0248
116. Q271H  -0.0231
117. M478D  -0.0222
118. K80C  -0.0206
119. E287D  -0.0111
120. V284M  -0.00894
121. H508N  -0.00695
122. P494S  -0.00543
123. P494V  -0.0025
124. Q323V  -0.00203
125. Q472T  -0.00129
126. L411A  -0.00099
127. P488G  0.0021
128. A63T  0.00284
129. S483H  0.00458
130. S480V  0.00525
131. P488N  0.00623
132. Q484L  0.00769
133. S294N  0.0126
134. K492W  0.0127
135. P494E  0.0133
136. P494H  0.015
137. G297F  0.016
138. S276H  0.0172
139. Q498Y  0.0174
140. V415A  0.0175
141. G479D  0.0194
142. S270H  0.0198
143. Q484E  0.022
144. I509T  0.026
145. I509P  0.0272
146. C477N  0.0283
147. N517H  0.0285
148. I509N  0.0286
149. S343A  0.0302
150. A371G  0.0402
151. E140D  0.0449
152. S344C  0.0475
153. V328C  0.0567
154. H172T  0.0683
155. W381I  0.0761
156. I421L  0.0792
157. E342D  0.0832
158. G170H  0.094
159. L139H  0.1
160. P225L  0.119
161. G123C  0.124
162. Q50P  0.126
163. L229R  0.134
164. T436M  0.186
165. A400F  0.262
166. Q397W  0.284
167. K422R  0.334
